Target: the molecule itself
Experiment: single-molecule photobleaching step analysis

B1: EmrE, a multidrug transporter from Escherichia coli, with a tetracysteine tag (TC-Tag) (natural protein)
chain: MNPYIYLGGAILAEVIGTTLMKFSEGFTRLWPSVGTIICYCASFWLLAQTLAYIPTGIAYAIWSGVGIVLISLLSWGFFGQRLDLPAIIGMMLICAGVLIINLLSRSTPH
modifications: FlAsH dye covalently bound to the tetracysteine tag
- stoichiometry N: 2
